{"source": "patent US20220220166", "about": "“PPR PROTEIN CAUSING LESS AGGREGATION AND USE OF THE SAME” (EditForce, Inc., published 2022)", "binders": {"B1": {"name": "CAGx6 RNA probe (ssRNA)", "RNA": "GACAUGCCAGCAGCAGCAGCAGCAGGACUG"}}, "experiment_in_all_cases": "vs PPRcag_1; streptavidin plate luciferase assay, RT", "details_in_all_cases": "tags: N-terminal luciferase (Nluc), C-terminal 6xHis; label: 5'-biotin", "key": {"[1]": {"molecular_target": "T1, PPRcag_3 (6N9Q), Nluc-PPR-His6 (synthetic construct)", "T1 chain": "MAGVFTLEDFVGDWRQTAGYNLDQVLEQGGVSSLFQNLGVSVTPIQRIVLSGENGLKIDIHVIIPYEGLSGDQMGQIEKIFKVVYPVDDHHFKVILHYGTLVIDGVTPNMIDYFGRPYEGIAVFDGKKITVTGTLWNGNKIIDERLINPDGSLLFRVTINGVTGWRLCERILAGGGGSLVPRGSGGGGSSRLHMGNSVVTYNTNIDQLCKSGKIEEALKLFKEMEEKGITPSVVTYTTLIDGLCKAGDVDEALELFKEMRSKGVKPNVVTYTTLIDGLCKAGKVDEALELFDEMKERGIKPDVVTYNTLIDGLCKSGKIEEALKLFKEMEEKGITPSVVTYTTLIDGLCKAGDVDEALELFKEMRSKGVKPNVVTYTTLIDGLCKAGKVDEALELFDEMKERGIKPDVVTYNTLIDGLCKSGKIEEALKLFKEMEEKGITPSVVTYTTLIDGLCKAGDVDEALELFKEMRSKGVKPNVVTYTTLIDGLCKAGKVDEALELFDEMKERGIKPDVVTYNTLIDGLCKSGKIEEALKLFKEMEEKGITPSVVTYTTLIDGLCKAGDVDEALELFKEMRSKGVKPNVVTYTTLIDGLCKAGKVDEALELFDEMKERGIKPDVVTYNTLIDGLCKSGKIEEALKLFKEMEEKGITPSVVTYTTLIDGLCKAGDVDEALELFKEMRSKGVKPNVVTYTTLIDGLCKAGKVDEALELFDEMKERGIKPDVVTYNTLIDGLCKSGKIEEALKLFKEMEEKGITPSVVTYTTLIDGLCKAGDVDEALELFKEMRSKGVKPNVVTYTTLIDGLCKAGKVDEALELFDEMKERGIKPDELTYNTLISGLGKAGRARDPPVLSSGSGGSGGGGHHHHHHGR", "experimental": "(§1) The binding experiment for PPR protein and RNA was performed by an experimental method for binding of PPR protein and biotinylated RNA on a streptavidin plate.\n(§2) There were synthesized RNA probes of 30-base RNAs containing the target CAGx6 sequence, untargeted CGGx6, CUGx6, and CCGx6, and the Dlb ([…]) sequence (positions 8 to 25 of SEQ ID NO: 42) modified with biotin at the 5′-end (in that order, SEQ ID NOS: 38 to 42, respectively) (Grainer). To a streptavidin-coated plate (Thermo Fisher, Cat. No. 15502), the 5′-end biotinylated RNA probes were added, reaction was allowed at room temperature for 30 minutes, and the plate was washed with a probe washing buffer (20 mM Tris-HCl, pH 7.6, 150 mM NaCl, 5 mM MgCl₂, 0.5% NP-40, 1 mM DTT, 0.1% BSA). For background measurement, wells to which biotinylated RNA was not added, but the lysis buffer was added were also prepared. Then, a blocking buffer (20 mM Tris-HCl, pH 7.6, 150 mM NaCl, 5 mM MgCl₂, 0.5% NP-40, 1 mM […], 1% BSA) was added, and the plate surface was blocked at room temperature for 30 minutes. Then, 100 μL of the E. coli lysate containing luciferase-fused PPR protein having a luminescence of 1.5×10⁸ LU/μL was added, and the binding reaction was allowed at room temperature for 30 minutes. Then, the plate was washed 5 times with 200 μL of a washing buffer (20 mM Tris-HCl, pH 7.6, 150 mM NaCl, 5 mM MgCl₂, 0.5% NP-40, 1 mM DTT). To each well, 40 μL of luciferase substrate (Promega, E151A) diluted 2,500-fold with the washing buffer was added, reaction was allowed for 5 minutes, and then luminescence was measured with a plate reader (PerkinElmer, Cat. No. 5103-35)."}, "[2]": {"molecular_target": "T2, PPRcag_6 (6D9G), Nluc-PPR-His6 (synthetic construct)", "T2 chain": "T1 chain with N204D, Q207G", "experimental": "as §1, §2"}, "[3]": {"molecular_target": "T3, PPRcag_4 (6N9E), Nluc-PPR-His6 (synthetic construct)", "T3 chain": "T1 chain with Q207E", "experimental": "as §1, §2"}, "[4]": {"molecular_target": "T4, PPRcag_5 (6N9K), Nluc-PPR-His6 (synthetic construct)", "T4 chain": "T1 chain with Q207K", "experimental": "as §1, §2"}}, "note": "Residue numbers refer to the chain shown, from its start."}
{"binder": "B1", "values": [{"measurement": "binding signal", "setting": "[1]", "value": "~80", "unit": "%"}, {"measurement": "binding signal", "setting": "[2]", "value": "~130", "unit": "%"}, {"measurement": "binding signal", "setting": "[3]", "value": "~60", "unit": "%"}, {"measurement": "binding signal", "setting": "[4]", "value": "~120", "unit": "%"}]}
